US6746859

Experiments:
[1] = biological target: T1, E. coli thioredoxin/human IL-11 fusion protein with enterokinase cleavage spacer (UniProt P20809)
T1 sequence: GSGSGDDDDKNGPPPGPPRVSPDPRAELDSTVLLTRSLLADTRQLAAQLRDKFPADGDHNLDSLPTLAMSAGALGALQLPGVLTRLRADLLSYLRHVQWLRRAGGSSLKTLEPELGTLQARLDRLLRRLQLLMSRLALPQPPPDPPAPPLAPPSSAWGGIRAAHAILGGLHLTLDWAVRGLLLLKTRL

[2] = test system: T2, Gly-(Asp4)-Lys-βNA fluorogenic enterokinase substrate
T2 sequence: GDDDDK

“bovine-derived enterokinase holoenzyme (heavy and light chains)” gave an EFFICIENCY OF CLEAVAGE (relative molar activities) (relative molar activity) [1] of 1, an EFFICIENCY OF CLEAVAGE (relative molar activities) (relative molar activity) (Trypsinogen) of 100 and an EFFICIENCY OF CLEAVAGE (relative molar activities) (relative molar activity) [2] of 1.
